doi:10.1101/2024.04.22.590578

Biological target: SARS-CoV-2 main protease (M^pro), wild type (SARS-CoV-2)
Test: crystal structure

## SARS-CoV-2 main protease (M^pro), wild type (enzyme)
  stoichiometry N: 2
